The test has as its target GCNt stabilized pre-fusion soluble version of the NiV-F glycoprotein (NiV-sFGCNt) (Nipah virus) (UniProt Q9IH63). In words: crystal structure.

What is called stoichiometry N is the number of molecules, sites or subunits per partner or assembly. Regarding “GCNt stabilized pre-fusion soluble version of the NiV-F glycoprotein (NiV-sFGCNt) (from UniProt Q9IH63 27-488) (domain or fragment)”, the stoichiometry N was 3.

For the origin of these results see paper PMC4672880.
